The values below come from publication PMC8460662.

The experiment addresses AlexaFluor594-tagged pre-formed fibrils (PFFs) of alpha-synuclein (UniProt P37840). Briefly: two-colour coincidence detection (TCCD), single-molecule fluorescence; AF594-labelled α-SYN fibrils added to LTE expressing the N-GFP LB protein; fibrils at 1 µM (monomer-equivalent); stationary plate; 300 s traces, quadruplicate; Association Quotient Q.

For “GABARAPL1 (from UniProt Q9H0R8 1-117) (natural protein)”, the relative presence of GFP species in the aggregates (fraction bound to fibrils) is 0.14.
